What all share (assay): cryo-EM structure
Assay [1] addresses BG505 SOSIP MD39 (HIV (BG505 genotype, clade A)).
The target of assay [2] is BG505 SOSIP.v5.2 N241/N289 (HIV (BG505 genotype, clade A)).
Assay [3] addresses BG505 SOSIP.v5.2(7S) N241/N289 (HIV (BG505 genotype, clade A)).

For orientation: stoichiometry N means a count of units in the complex or per binding partner. Substance BG505 SOSIP MD39 (domain or fragment) came in with a stoichiometry N in assay [1] of 3.
As for “BG505 SOSIP.v5.2 N241/N289 (domain or fragment)”, in assay [2], the stoichiometry N worked out at 3.
In assay [3], “BG505 SOSIP.v5.2(7S) N241/N289 (domain or fragment)” showed a stoichiometry N of 3.

For the origin of these results see PMC8355326.
